Reference: patent publication US20230257435A1, “Wound Healing Composition and Uses Thereof” (AGENCY FOR SCIENCE, TECHNOLOGY AND RESEARCH, priority 2020, published 2023)

Tested on: mouse skin punch wounds
Assay: Punch-biopsy wound healing model, splinted
Format: in vivo
Description: Six to eight to week old female experimental ICR (nomenclature: IcrTac:ICR) mice purchased from InVivos were used for punch-biopsy wound healing in vivo assays. In the ex-vivo mouse skin explant assay, random ratios of male and female new born ICR mouse pups were used. Wherever possible, the experiments were performed taking into consideration an ethical and reductionist approach of animal usage. Animal studies were not performed in a blinded fashion. The animals were randomly assigned to different experimental groups. The number of animals used for each experiment is indicated in the legend as n=x mice per group. All animal experiments performed were done in accordance with experimental protocols reviewed by the Biological Resource Center (BRC), Agency for Science Technology and Research (A*STAR) under strict compliance to the Institutional Animal Care and Use Committee (IACUC) guidelines for ethical use of animal models in biological research.
The mice were housed under standard conditions of 21° C. and a 12 h light-dark cycle with free access to food. Subsequently, the mice were intraperitoneally (i.p.) anesthezised using Ketamine 100 mg/kg and Xylazin 10 mg/kg diluted in […] of saline solution. The fur was shaved from the base of the neck towards the back on the entire shoulder region. The skin was wiped with an alcohol swab and 10% povidone-iodine (Betadine) antiseptic solution. Circular symmetrical 4 mm wounds were inflicted on either side of the midline in the shoulder region using a sterile 4 mm punch biopsy needle (Integra Miltex, Integra York, P.A., Inc.). The wound skin was carefully removed using a scalpel and a pair of scissors to generate a full-thickness wound that were left open for topical administrations during the analysed time periods. For splinted wound healing models, a 10 mm transparent donut shaped nylon sheet (Grace Bio-Laboratories, Bend, Oreg.) was placed around the 4 mm wound. The splint was placed with the wound at the center, glued to the skin by adhesive (Krazy Glue®; Elmer's Inc.), and covered by Tegaderm dressing. The wounds were treated with different formulations based on either petroleum jelly (Vaseline), a thermoresponsive hydrogel (Pluronic F127-Sigma) or a commercially available skin ointment (Aquaphore-Beiersdorf, Inc.). For Vaseline based ointment cream preparation, 10 mg per cm^2 vaseline ointment was mixed with filtered PBS solutions containing the indicated amounts of Agrin (100 μg, 200 μg or 500 μg) and 100 μg BSA (w/w) were used and applied topically every two days. For siRNA mediated knockdown experiments, 75 nM of indicated siRNAs were incubated with lipofectamine in PBS. Subsequently, a 1:1 mixture of PBS (containing the siRNAs): Aquaphore was applied topically on the wound region every two days. A topical formulation comprising of 20% (w/w) Pluronic F127 (Sigma) was used to dissolve in sterile and 0.22μ filtered solution containing a final concentration of 200 μg/ml sAgrin or BSA. This mixture was dissolved overnight at 4° C. to ensure that liquid phase is achieved. The mixture forms a homogenous gel at temperatures above ˜20° C. and was dispersed topically to cover the wound. Wound closure was assessed using a Vernier caliper every alternate day. For both models, the animals were caged individually throughout the observed time-points of healing at the institutional animal facility. All wound healing animal experiments performed were done in accordance with experimental protocols reviewed by the Biological Resource Center (BRC), Agency for Science Technology and Research (A*STAR) under strict compliance to the Institutional Animal Care and Use Committee (IACUC) guidelines for ethical use of animal models in biological research.
Human skin equivalents and mice skin tissues were harvested, embedded, and subjected to routine histology using Hematoxylin and Eosin. For immunostaining, the tissues were fixed for 24 h in 10% neutral buffered formalin solution. […]

B1: sAgrin: C-terminus recombinant Agrin fragment containing 8 amino acid 'Z8' insert and LG3 domain (SEQ ID NO: 7), His-tagged, expressed in E. coli (protein)
chain: DTLAFDGRTFVEYLNAVTESELANEIPVEKALQSNHFELSLRTEATQGLVLWSGKATERADYVALAIVDGHLQLSYNLGSQPVVLRSTVPVNTNRWLRVVAHREQREGSLQVGNEAPVTGSSPLGATQLDTDGALWLGGLPELPVGPALPKAYGTGFVGCLRDVVVGRHPLHLLEDAVTKPELRPCPTP
modifications: His tag
wound healing, Pluronic F127 (200 ug sAgrin vs collagen or BSA, 12 days): significantly accelerated wound healing when compared to similar concentrations of collagen or BSA
pMLC expression in wound edges and beds under MMP12 depletion (MMP12 siRNA, 200 μg sAgrin): significantly attenuated in MMP12 depleted skin sections
sAgrin accelerated healing rates and re-epithelialization under MMP12 depletion (MMP12 siRNA, 200 μg sAgrin, within 10 days): dramatically reduced upon MMP12 depletion
CD-31 expressing blood vessels under MMP12 suppression (day 10): failed to induce robust CD-31 expressing blood vessels
sAgrin induced mature and mixed collagen fiber deposition under MMP12 depletion (day 10): significantly diminished upon MMP12 depletion
deposition of collagen fibers in wound beds (day 10, vs BSA and Collagen): higher deposition of mature and mixed collagen fibers
histology of wound area (day 10 post-wounding, vs BSA or Collagen): predominantly represented healed skin with the emergence of regenerated hair follicles
number of blood vessels and their diameters (day 12 post-injury, vs BSA or Collagen): increased number of blood vessels and their diameters
